Laboratory results from publication PMC11363328, “Identification of Rocaglate Acyl Sulfamides as Selective Inhibitors of Glioblastoma Stem Cells”.

What was measured:
Conditions in all cases: protein: recombinant; single strand
eIF4A1 [1] = molecular target: T1, eIF4A1 (UniProt P60842 1-406); assay: fluorescence polarization, protein titration; 50 uM (-)-5, 1 mM ATP; EC50 for complex formation, range for all three compounds; FP: 14.4 mM HEPES-KOH pH 8, 108 mM NaCl, 1 mM MgCl2, 14.4% glycerol, 0.1% DMSO, 2 mM DTT, 1 mM ATP, 10 nM probe, room temperature, 10 min
T1 sequence (P60842 whole entry): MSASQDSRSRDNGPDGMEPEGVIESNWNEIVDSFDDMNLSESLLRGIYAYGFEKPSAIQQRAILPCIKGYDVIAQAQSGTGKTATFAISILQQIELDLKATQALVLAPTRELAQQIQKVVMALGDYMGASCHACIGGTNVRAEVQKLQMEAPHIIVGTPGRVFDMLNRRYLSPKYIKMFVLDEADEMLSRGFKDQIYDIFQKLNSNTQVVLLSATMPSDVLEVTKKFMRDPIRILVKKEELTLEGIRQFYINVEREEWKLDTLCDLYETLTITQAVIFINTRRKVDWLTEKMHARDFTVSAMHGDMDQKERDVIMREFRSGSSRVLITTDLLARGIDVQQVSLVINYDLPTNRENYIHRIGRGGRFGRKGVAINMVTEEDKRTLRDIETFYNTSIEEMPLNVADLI

eIF4A1 [2] = molecular target: T1, eIF4A1; assay: fluorescence polarization, protein titration; 50 uM (-)-7, 1 mM ATP; EC50 for complex formation, range for all three compounds; FP: 14.4 mM HEPES-KOH pH 8, 108 mM NaCl, 1 mM MgCl2, 14.4% glycerol, 0.1% DMSO, 2 mM DTT, 1 mM ATP, 10 nM probe, room temperature, 10 min
eIF4A1 [3] = molecular target: T1, eIF4A1; assay: fluorescence polarization, protein titration; 50 uM (-)-20, 1 mM ATP; EC50 for complex formation, range for all three compounds; FP: 14.4 mM HEPES-KOH pH 8, 108 mM NaCl, 1 mM MgCl2, 14.4% glycerol, 0.1% DMSO, 2 mM DTT, 1 mM ATP, 10 nM probe, room temperature, 10 min

Measured: apparent K (half saturation)

AGAGAGAGAGAGAGAG (ssRNA) [FAM-r(AG)8]
~245 nM: all assays above
